Reference: patent US20260167673A1, “NOVEL POLYPEPTIDE, POLYPEPTIDE DERIVATIVE AND USE THEREOF” (NANJING ANJI BIOTECHNOLOGY CO., LTD., priority 2023, published 2026)
Substitutions are numbered along the chain they refer to. Where no end group is shown, it is not given here.

T1: AQP2 protein (UniProt P41181 1-271, limits assumed)
T1 construct: also called protein AQP2
T1 sequence (looked up): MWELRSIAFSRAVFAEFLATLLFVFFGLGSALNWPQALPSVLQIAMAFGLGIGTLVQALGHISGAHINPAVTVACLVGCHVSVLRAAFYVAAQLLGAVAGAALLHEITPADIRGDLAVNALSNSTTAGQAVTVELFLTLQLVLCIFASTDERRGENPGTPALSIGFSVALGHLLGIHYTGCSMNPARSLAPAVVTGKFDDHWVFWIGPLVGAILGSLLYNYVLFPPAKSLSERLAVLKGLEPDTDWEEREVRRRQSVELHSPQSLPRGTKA

B1: micropeptide HMMW (peptide)
peptide: MERAGVPGFSPRRSSVEAKMQSTSCSVRKSSTVTAWPAVVLLLSWGQRRGG
notes: 51-residue micropeptide encoded by a lncRNA
B2: HMMW-2A (peptide)
peptide: B1 peptide with E2A
notes: Alanine mutant of HMMW at position 2; solid-phase synthesis
B3: HMMW-3A (peptide)
peptide: B1 peptide with R3A
notes: Alanine mutant of HMMW at position 3; solid-phase synthesis
B4: HMMW-8A (peptide)
peptide: B1 peptide with G8A
notes: Alanine mutant of HMMW at position 8; solid-phase synthesis
B5: HMMW-9A (peptide)
peptide: B1 peptide with F9A
notes: Alanine mutant of HMMW at position 9; solid-phase synthesis
B6: HMMW-10A (peptide)
peptide: B1 peptide with S10A
notes: Alanine mutant of HMMW at position 10; solid-phase synthesis
B7: HMMW-11A (peptide)
peptide: B1 peptide with P11A
notes: Alanine mutant of HMMW at position 11; solid-phase synthesis
B8: HMMW-12A (peptide)
peptide: B1 peptide with R12A
notes: Alanine mutant of HMMW at position 12; solid-phase synthesis
B9: HMMW-13A (peptide)
peptide: B1 peptide with R13A
notes: Alanine mutant of HMMW at position 13; solid-phase synthesis
B10: HMMW-17A (peptide)
peptide: B1 peptide with E17A
notes: Alanine mutant of HMMW at position 17; solid-phase synthesis
B11: HMMW-19A (peptide)
peptide: B1 peptide with K19A
notes: Alanine mutant of HMMW at position 19; solid-phase synthesis
B12: HMMW-20A (peptide)
peptide: B1 peptide with M20A
notes: Alanine mutant of HMMW at position 20; solid-phase synthesis
B13: HMMW-21A (peptide)
peptide: B1 peptide with Q21A
notes: Alanine mutant of HMMW at position 21; solid-phase synthesis
B14: HMMW-22A (peptide)
peptide: B1 peptide with S22A
notes: Alanine mutant of HMMW at position 22; solid-phase synthesis
B15: HMMW-25A (peptide)
peptide: B1 peptide with C25A
notes: Alanine mutant of HMMW at position 25; solid-phase synthesis
B16: HMMW-27A (peptide)
peptide: B1 peptide with V27A
notes: Alanine mutant of HMMW at position 27; solid-phase synthesis
B17: HMMW-28A (peptide)
peptide: B1 peptide with R28A
notes: Alanine mutant of HMMW at position 28; solid-phase synthesis
B18: HMMW-30A (peptide)
peptide: B1 peptide with S30A
notes: Alanine mutant of HMMW at position 30; solid-phase synthesis
B19: HMMW-31A (peptide)
peptide: B1 peptide with S31A
notes: Alanine mutant of HMMW at position 31; solid-phase synthesis
B20: HMMW-32A (peptide)
peptide: B1 peptide with T32A
notes: Alanine mutant of HMMW at position 32; solid-phase synthesis
B21: HMMW-40A (peptide)
peptide: B1 peptide with V40A
notes: Alanine mutant of HMMW at position 40; solid-phase synthesis
B22: HMMW-41A (peptide)
peptide: B1 peptide with L41A
notes: Alanine mutant of HMMW at position 41; solid-phase synthesis
B23: HMMW-42A (peptide)
peptide: B1 peptide with L42A
notes: Alanine mutant of HMMW at position 42; solid-phase synthesis
B24: HMMW-43A (peptide)
peptide: B1 peptide with L43A
notes: Alanine mutant of HMMW at position 43; solid-phase synthesis
B25: HMMW-44A (peptide)
peptide: B1 peptide with S44A
notes: Alanine mutant of HMMW at position 44; solid-phase synthesis
B26: HMMW-45A (peptide)
peptide: B1 peptide with W45A
notes: Alanine mutant of HMMW at position 45; solid-phase synthesis
B27: HMMW-48A (peptide)
peptide: B1 peptide with R48A
notes: Alanine mutant of HMMW at position 48; solid-phase synthesis
B28: HMMW-49A (peptide)
peptide: B1 peptide with R49A
notes: Alanine mutant of HMMW at position 49; solid-phase synthesis
B29: HMMW-50A (peptide)
peptide: B1 peptide with G50A
notes: Alanine mutant of HMMW at position 50; solid-phase synthesis

Test system: not listed separately
Test: Solubility of the synthesized polypeptides
Conditions: PBS/0.1% DMSO

Question: Which “Solubility PBS/0.1% DMSO” value does the source give for “MERAGVPGFSPRRSSVEAKMQSTSCSVRKSSTVPAVVLLLSWGQRRGG [HMMW-12]” here?
Answer: Soluble

Question: For “MERAGVPGFSPRRSSVEAKMQSTSCSVRKSSTVTAWPAVVLLLSWRGG [HMMW-16]”, which “Solubility PBS/0.1% DMSO” value is on record?
Answer: Soluble

Question: Which “Solubility PBS/0.1% DMSO” value does the source give for “MERPGFSPRRSSVEAKMQSTSCSVRKSSTVTAWPAVVLLLSWGQRRGG [HMMW-2]” here?
Answer: Soluble

Question: Which “Solubility PBS/0.1% DMSO” value does the source give for “MERAGVPGFSPRRSSVEAKMQSTSCSVRKSSTVTAWPAVLSWGQRRGG [HMMW-14]” here?
Answer: Soluble

Question: Which “Solubility PBS/0.1% DMSO” value does the source give for “MERAGVPGFSPRVEAKMQSTSCSVRKSSTVTAWPAVVLLLSWGQRRGG [HMMW-5]” here?
Answer: Soluble

Question: With “MERAGVPGFSPRRSSVEASTSCSVRKSSTVTAWPAVVLLLSWGQRRGG [HMMW-7]” as the molecule, how does the “Solubility PBS/0.1% DMSO” value read?
Answer: Soluble

Question: With “MERAGVPGFSPRRSSVEAKMQSTSCSVRKSSTVTAWPAVVLLGQRRGG [HMMW-15]” as the molecule, how does the “Solubility PBS/0.1% DMSO” value read?
Answer: Soluble

Question: For “MERAGVSPRRSSVEAKMQSTSCSVRKSSTVTAWPAVVLLLSWGQRRGG [HMMW-3]”, which “Solubility PBS/0.1% DMSO” value is on record?
Answer: Soluble

Question: Which “Solubility PBS/0.1% DMSO” value does the source give for “MERAGVPGFSPRRSSKMQSTSCSVRKSSTVTAWPAVVLLLSWGQRRGG [HMMW-6]” here?
Answer: Soluble

Question: With “AGVPGFSPRRSSVEAKMQSTSCSVRKSSTVTAWPAVVLLLSWGQRRGG [HMMW-1]” as the molecule, how does the “Solubility PBS/0.1% DMSO” value read?
Answer: Soluble

Question: With “MERAGVPGFSPRRSSVEAKMQSTSRKSSTVTAWPAVVLLLSWGQRRGG [HMMW-9]” as the molecule, how does the “Solubility PBS/0.1% DMSO” value read?
Answer: Soluble

Question: Which “Solubility PBS/0.1% DMSO” value does the source give for “MERAGVPGFSPRRSSVEAKMQCSVRKSSTVTAWPAVVLLLSWGQRRGG [HMMW-8]” here?
Answer: Soluble

Same assay, conditions: polypeptides obtained by chemical solid-phase synthesis

Question: With “SPRRSSVEAKMQSTSCSVRKSSTVTAWPAVVLLLSWGQRRGG [HMMW10-51]” as the molecule, how does the solubility read?
Answer: good solubility

Question: With “MQSTSCSVRKSSTVTAWPAVVLLLSWGQRRGG [HMMW20-51]” as the molecule, how does the solubility read?
Answer: good solubility

Question: Which solubility does the source give for “SVEAKMQSTSCSVRKSSTVTAWPAVVLLLSWGQRRGG [HMMW15-51]” here?
Answer: good solubility

Question: For “GVPGFSPRRSSVEAKMQSTSCSVRKSSTVTAWPAVVLLLSWGQRRGG [HMMW5-51]”, which solubility is on record?
Answer: good solubility

Target: T1, AQP2 protein
Test: microscale thermophoresis (MST); column head 'Affinity (µM)'
Conditions: not given
Procedure: Molecular docking simulation was performed on the micropeptide HMMW and a binding protein AQP2 thereof using MOE software, to identify predicted potential interaction sites. The docking simulation was divided into the following two groups: (1) random docking of an AQP2 homotetramer with the HMMW, without limiting a binding region; and (2) random docking of an AQP2 monomer with the HMMW, without limiting a binding region. Interaction sites obtained from the above two docking methods were integrated and analyzed, and all possible binding amino acids were selected as potential key sites for alanine (Ala) mutations. Due to alanine being the smallest chiral amino acid, the impact of a specific amino acid on an overall protein biological activity can be distinguished by systematically and sequentially substituting each amino acid in a sequence with Ala. The predicted polypeptides were obtained by solid-phase synthesis, and the affinity of different mutated polypeptides to the AQP2 protein was detected by microscale thermophoresis (MST) assay.

Question: For B1, which Kd is on record?
Answer: 3.07 µM

Question: With B2 as the molecule, how does the Kd read?
Answer: 2.5 µM

Question: For B3, which Kd is on record?
Answer: 2.8 µM

Question: Which Kd does the source give for B4 here?
Answer: 14.8 µM

Question: For B5, which Kd is on record?
Answer: 3.95 µM

Question: Which Kd does the source give for B6 here?
Answer: 4.03 µM

Question: Which Kd does the source give for B7 here?
Answer: 2.33 µM

Question: For B8, which Kd is on record?
Answer: 1.12 µM

Question: With B9 as the molecule, how does the Kd read?
Answer: 6.61 µM

Question: For B10, which Kd is on record?
Answer: 3.93 µM

Question: For B11, which Kd is on record?
Answer: 5.11 µM

Question: With B12 as the molecule, how does the Kd read?
Answer: 2.59 µM

Question: For B13, which Kd is on record?
Answer: 7.64 µM

Question: For B14, which Kd is on record?
Answer: 3.21 µM

Question: For B15, which Kd is on record?
Answer: 1.97 µM

Question: Which Kd does the source give for B16 here?
Answer: 2.39 µM

Question: For B17, which Kd is on record?
Answer: 2.27 µM

Question: Which Kd does the source give for B18 here?
Answer: 2.23 µM

Question: Which Kd does the source give for B19 here?
Answer: 3.06 µM

Question: For B20, which Kd is on record?
Answer: 2.01 µM

Question: Which Kd does the source give for B21 here?
Answer: 1.19 µM

Question: With B22 as the molecule, how does the Kd read?
Answer: 4.32 µM

Question: Which Kd does the source give for B23 here?
Answer: 0.25 µM

Question: For B24, which Kd is on record?
Answer: 0.36 µM

Question: Which Kd does the source give for B25 here?
Answer: 5.23 µM

Question: Which Kd does the source give for B26 here?
Answer: 3.24 µM

Question: With B27 as the molecule, how does the Kd read?
Answer: 11.6 µM

Question: With B28 as the molecule, how does the Kd read?
Answer: 20.8 µM

Question: For B29, which Kd is on record?
Answer: 0.55 µM
